# Data reported in the nanobody polyreactivity screen of Harvey et al. (2022).
# Assay: yeast display, Sf9 membrane polyspecificity reagent, FACS + sequencing; frameworks hold sequencing errors
# Summary of the method: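 A nanobody's polyreactivity label depends on the gate it was sorted from. Yeast display cells were stained with 10% biotinylated, detergent-solubilized Sf9 membrane reagent for 1 hour at 4 °C, enriched on streptavidin microbeads and sorted by FACS. The low and high (top ~1%) gates were set on anti-HA fluorescence for expression and streptavidin fluorescence for reagent binding.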
row,Sequence,polyreactivity (PSR sort gate)
1,QVQLVESGGGLVQAGGSLRLSCAASGYNFVRNAMGWYRQAPGKERELVAAISGSGGSTYYADSVKGRFTISRDNAKNTVYLQMNSLKPEDTAVYYCAADYATVTWRGIAYDYWGQGTQVTVSS,low polyreactivity
2,QVQLVESGGGLVQAGGSLRLSCAASGYSFYINVMGWYIQAPGKERELLAAISISGDSTYYSDSVKGRFTISRDNAKNTVYLQMNSLKPDDTALYYCAADTVSSWYYPLEDEYWGQGTQVTVSS,high polyreactivity
3,QVQLVESGGGLVQAGGSLRLSCAASGYTFDAYAMGWYRQAHGKERELVAAINYSGGSTYADSVKGRFTISRDNAKNTVYLQMNSLKPEDTAVYYCATRLYGYWPNGFDYWGQGTQVTVSS,low polyreactivity
4,QVQLVESGGGLVQAGGSLRLSCAASGYTFDTNALGWYRLAPGTEREFVAAISSTGGTYYADSVKGRFTISRDNAKNTVYLQMNSLKPEDTAVYYCAATFIQVVVIVQLYDYDYWRQGTQVTVSS,low polyreactivity
5,QVQLVESGGGLVQAGGSLRLSCAASGYTFFYYAMGWSRQAPGKERELVAIDLNGGSTYYADSVKGRFTISRDNAKNTVYLQMNSLKPEDTAVSSCAATRPWYGDVGYLEDYWGQGTQVTVSS,low polyreactivity
6,QVQLVESGGGLVQAGGSLRLSCAASGYTFGEYAMGWYRQAPGKERELVATISLSDGSTNYADSVKGRFTISRDNAKNTVYLQMNSLKPEDTAVYYCATETQQALYGSVLKYNYWGQGTQVTVSS,low polyreactivity
7,QVQLVESGGGLVQAGGSLRLSCAASGYTFGGNAMGWYRQAPGKERELVAAISNTGGRTNYADSVKGRFTISRDNAKNTVYLQMNSLKPEDTAVSYCAKSVYYRDRYGGDYWGQGTQVTVSS,low polyreactivity
8,QVQLVESGGGLVQAGGSLRLSCAASGYTFGINAMGWYRQAPGNERELVAAITTGGSTNYADSVKGRFTISRDNAKNTVYLQMNSLTPEDTAVYYCNASWDGWNANYWYPGAYYYWGQGTQVTVSS,low polyreactivity
9,QVQLVESGGGLVQAGGSLRLSCAASGYTFGKYAMGWYRQAPGKEREWVAGISSRGGSTYYADSVKGRFTISRDNAKNTVYLQMNSLKPEDTAVYYCAAVAYTGGPRKLGFNYWGQGTQVTVSS,high polyreactivity
10,QVQLVESGGGLVQAGGSLRLSCAASGYTFGPYAMGWYRQAPGKERELVAAITTRGGSTYYADSVKGRFTISRYNAKNTVYLQMNSLKPEDTAVYYCAAESIRSDDYWGQGTQVTVSS,high polyreactivity
11,QVQLVESGGGLVQAGGSLRLSCAASGYTFGYNAMGWYRQAPGKERELVATISSGGTTTYADSVKGRFTISRDNAKNTVYLQMNSLKPEDTAVYYCNVYDYPTYDYWGQGTQVTVSS,low polyreactivity
12,QVQLVESGGGLVQAGGSLRLSCAASGYTFGYYAMGWYRQAPGKERELVAAINWSGGSTYYADSVKGRFTISRDNAKNTVYLQMNSLKPEDTAVYYCNRRTGSYGRTPVWKGEYYYWGQGTQVTVSS,high polyreactivity
13,QVQLVESGGGLVQAGGSLRLSCAASGYTFGYYAMGWYRQAPGKERELVAAISWRGARTNYADSVKGRFTISRDNAKNTVYLQMNSLKPEDTAVYYCAAGYYYGYPPRDYWGQGTQVTVSS,high polyreactivity
14,QVQLVESGGGLVQAGGSLRLSCAASGYTFHGYAMGWYRQAPGKERELVAVITQRGGSTSYADSVKGRFTISRDNAKNTVYLQMNSLKPEDTAVYYCNADGPSTPWVDYGYWGQGTQVTVSS,low polyreactivity
15,QVQLVESGGGLVQAGGSLRLSCAASGYTFKRYAMGWYRQAPGKESDLVASITRRGGSTYYADSVKGRFTISRDNAKNTVNLQMNSLKPEDTAVYDCAKSIPLGYTIYDYWGQGTQVTVSS,high polyreactivity
16,QVQLVESGGGLVQAGGSLRLSCAASGYTFKVYAMGWYRQAPGKERELVAAIRSSGGSTYADSVKGRFTISRDNAKNTVYLQMNSLKPEDTAVYYCAKAGYVSGLYSATRYEYWGQGTQVTVSS,low polyreactivity
17,QVQLVESGGGLVQAGGSLRLSCAASGYTFLYYAMGWYRQAPGKEREFVAAISRSGGSTYYADSVKGRFTISRDNAKNTVYLQMNSLKPEDTAVYFCAARFRYQHQRGDYWGQGTQVTVSS,high polyreactivity
18,QVQLVESGGGLVQAGGSLRLSCAASGYTFNFNAMGWYRQAPGKERELVAAITWNGGRTYYADSVKGRFTISRDNAKNTVYLQMNSLKPEDTAVYYCAARSYQRPSDTRYDYWGQGTQVTVSS,high polyreactivity
19,QVQLVESGGGLVQAGGSLRLSCAASGYTFNYYAMGWYRQAPGKERELVAAIRSTGSTNYADSVKGRFTISRDNAKNTVYLQMKSLKPEDTAVYYCAAKIRKDYSIQGYDYWGQGSQVTVSS,high polyreactivity
20,QVQLVESGGGLVQAGGSLRLSCAASGYTFPLYAMGWSRQAPGKEREFVAAISKRSGTTYYADSVKGRFTISRDNAKNTVYLQMNSLKPEDTAVYYCAASNGYQAVTYDYWGQGTQVTVSS,high polyreactivity
21,QVQLVESGGGLVQAGGSLRLSCAASGYTFPLYAMGWYRQAPGQERELVADINIGGASTYYADSVKGRFTISRDNAKNTVYLQMNSLKPEDTAVYYSAKEYYDGYFPTFDYDYWGQGTQVTVSS,low polyreactivity
22,QVQLVESGGGLVQAGGSLRLSCAASGYTFPMYAMGWYRQAPGKERELVADINIGGASTYYADSVKGRFTISRDNAKNTVYLQMNSLKPEDSAVYYCAKEYYDGYFPTFDYDYWGQGTQVTVSS,low polyreactivity
23,QVQLVESGGGLVQAGGSLRLSCAASGYTFPYAMGWYRQAPGKERELVAAISSRGSSTYYADSVKGRFTISRDNAKNTVYLQINSLKPEDTAVYYCAAKHFVKVDYWGQGTQVTVSS,high polyreactivity
24,QVQLVESGGGLVQAGGSLRLSCAASGYTFQHYAMGWYRQAPGKERELVAAITRRGSGTYYADSVKGRFTSSRDNAKNTVYLQMNSLKPEDTAVYYCAAAVGHGVDYWGQGTQVTVSS,high polyreactivity
25,QVQLVESGGGLVQAGGSLRLSCAASGYTFRAYAMGWYRQAPGKEREFVAAISRSGGSTYYADSVKGRFTISRDNAKNTVYLQMNSLKPEDTAVYYCARRYARITPVYPPLNYWGQGSQVTVSS,high polyreactivity
26,QVQLVESGGGLVQAGGSLRLSCAASGYTFRGNAMGWYRQAPGKERELVAAISIGGTTYYADSVKGRFTISRDNAKNTVYLQMNSLKPVDTAVYYCARRGLAFLFDYWGQGTQVTVSS,low polyreactivity
27,QVQLVESGGGLVQAGGSLRLSCAASGYTFRKYAMGWYRQAPGKERELVAAITYTGGSTYYADSVKGRFTISRDNAKNTVYLQMNSLKPEDTAVYYCARRYRWGEYGYWGQGTQVTVSS,high polyreactivity
28,QVQLVESGGGLVQAGGSLRLSCAASGYTFRYYAMGWYRQAPGKEREFVAAITWSDSGTYYADSVKGRFTISRDNAKNTVYLQMNSLKPEDTAVYYCAAERYLSFDRYLYEYYYWGQGTQVTVSS,low polyreactivity
29,QVQLVESGGGLVQAGGSLRLSCAASGYTFRYYGMGWYRQAPGNERELVADINSNGVRTYYADSVKGRFTISRDNAKNTVYVQMNSLKPEDTAVYYCNKDWGRYRYDYWGQGTQVTVSS,high polyreactivity
30,QVQLVESGGGLVQAGGSLRLSCAASGYTFSDNAMGWSRQAPGKERDLVAAITSGVSKYFADSVKGRFTISRDNAKNTVYLQMNSLKPEDTADYYFAKDVAVYADLYQGAPYGYWGQGTQVTVSS,low polyreactivity
